For test [1], the target named is recombinant human propeptide of lysyl oxidase (LOX-PP) (human) (UniProt P28300). As to the kind of experiment: SPR; Biacore T100 or T200, 25 °C, HBS pH 7.4 with 0.05% P20; LOX-PP covalently immobilised on a CM5 chip via amino groups, plasminogen as analyte; single-cycle kinetics, 2-state model, n = 2. Background: Surface plasmon resonance follows binding to a sensor surface in real time, without labels.

The target of a further test is Tropoelastin (UniProt P15502). As to the kind of experiment: SPR; Biacore T100 or T200, 25 °C, HBS pH 7.4 with 0.05% P20; tropoelastin covalently immobilised on a CM5 chip via amino groups, LOX-PP as analyte; single-cycle kinetics, 2-state model.
Sequence of Tropoelastin (P15502 27-786): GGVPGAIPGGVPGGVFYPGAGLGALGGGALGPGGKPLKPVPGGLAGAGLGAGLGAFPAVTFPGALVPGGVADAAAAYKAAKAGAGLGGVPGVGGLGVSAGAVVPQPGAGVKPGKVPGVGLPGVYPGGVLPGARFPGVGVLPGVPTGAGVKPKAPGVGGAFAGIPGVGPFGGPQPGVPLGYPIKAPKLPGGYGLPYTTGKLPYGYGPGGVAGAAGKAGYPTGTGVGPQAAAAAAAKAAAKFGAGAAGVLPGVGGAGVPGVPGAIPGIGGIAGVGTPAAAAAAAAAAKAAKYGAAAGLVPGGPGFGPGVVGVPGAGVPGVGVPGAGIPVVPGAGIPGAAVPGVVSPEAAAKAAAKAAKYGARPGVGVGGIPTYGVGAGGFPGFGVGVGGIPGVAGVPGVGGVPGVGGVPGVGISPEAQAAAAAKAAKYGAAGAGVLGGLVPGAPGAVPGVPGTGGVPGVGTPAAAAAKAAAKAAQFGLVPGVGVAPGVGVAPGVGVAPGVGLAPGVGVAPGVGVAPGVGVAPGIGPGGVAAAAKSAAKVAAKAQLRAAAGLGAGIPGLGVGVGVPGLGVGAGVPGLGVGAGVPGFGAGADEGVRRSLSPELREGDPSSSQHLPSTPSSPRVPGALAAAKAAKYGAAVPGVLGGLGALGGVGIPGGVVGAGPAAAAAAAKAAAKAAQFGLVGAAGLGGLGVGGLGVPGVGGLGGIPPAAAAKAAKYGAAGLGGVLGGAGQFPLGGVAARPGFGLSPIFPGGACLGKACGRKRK

Sequence of recombinant human propeptide of lysyl oxidase (LOX-PP) (human) (P28300 22-168 P24L): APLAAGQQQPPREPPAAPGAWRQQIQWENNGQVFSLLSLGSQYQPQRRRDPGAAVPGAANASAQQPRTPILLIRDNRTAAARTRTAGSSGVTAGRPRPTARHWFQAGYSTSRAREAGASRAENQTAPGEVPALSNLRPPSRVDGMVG

As for Plasminogen (natural protein), in test [1], the Kd (in general, the constant that tells how readily two partners part at equilibrium) came out at 15.8 nM; the ka of the first step (2-state model) turned out to be 41700 M⁻¹ s⁻¹; the ka of the second step (2-state model) was determined as 0.00214 s⁻¹; the kd of the first step (2-state model) worked out at 0.00515 s⁻¹. In addition, the kd of the second step (2-state model) in test [1] was 0.000306 s⁻¹.

On to “recombinant human propeptide of lysyl oxidase (LOX-PP) (from UniProt P28300 22-168) (domain or fragment)”, for which, in the test with Tropoelastin, the Kd amounted to 1.39 nM, the ka of the first step (2-state model) came out at 331 M⁻¹ s⁻¹, the ka of the second step (2-state model) was 0.003 s⁻¹ and the kd of the first step (2-state model) stood at 0.0043 s⁻¹. In the test with Tropoelastin, this substance gave a kd of the second step (2-state model) of 3.1e-07 s⁻¹.

For the origin of these results see publication PMC6078952.
